Test results published in the Human Domainome abundance scans (Beltran et al. 2025).
± gives the uncertainty stated by the source.

B1: KAT8 regulatory NSL complex subunit 2, residues 28 to 91; numbered along this chain, Q9H9L4 (parent)
chain: CAFTHRPCSHPRLEGQEFCIKHILEDKNAPFKQCSYISTKNGKRCPNAAPKPEKKDGVSFCAEH

Variants of: B1
Assay: abundance fitness (aPCA) (normalised: wild type 0, dead -1); higher = more abundant; growth selection in yeast, the domain comes from the species named
Details: Homo sapiens

Row | Variant | abundance fitness
1 | CAFTHRPCSHCRLEGQEFCIKHILEDKNAPFKQCSYISTKNGKRCPNAAPKPEKKDGVSFCAEH [P11C] | -0.296 ± 0.098
2 | CAFTHRPCSHMRLEGQEFCIKHILEDKNAPFKQCSYISTKNGKRCPNAAPKPEKKDGVSFCAEH [P11M] | -0.092 ± 0.058
3 | CAFTHRPCSHNRLEGQEFCIKHILEDKNAPFKQCSYISTKNGKRCPNAAPKPEKKDGVSFCAEH [P11N] | -0.282 ± 0.1
4 | CAFTHRPCSHHRLEGQEFCIKHILEDKNAPFKQCSYISTKNGKRCPNAAPKPEKKDGVSFCAEH [P11H] | -0.234 ± 0.092
5 | CAFTHRPCSHERLEGQEFCIKHILEDKNAPFKQCSYISTKNGKRCPNAAPKPEKKDGVSFCAEH [P11E] | -0.004 ± 0.059
6 | CAFTHRPCSHIRLEGQEFCIKHILEDKNAPFKQCSYISTKNGKRCPNAAPKPEKKDGVSFCAEH [P11I] | -0.298 ± 0.14
7 | CAFTHRPCSHGRLEGQEFCIKHILEDKNAPFKQCSYISTKNGKRCPNAAPKPEKKDGVSFCAEH [P11G] | -0.133 ± 0.062
8 | CAFTHRPCSHRRLEGQEFCIKHILEDKNAPFKQCSYISTKNGKRCPNAAPKPEKKDGVSFCAEH [P11R] | -0.092 ± 0.051
9 | CAFTHRPCSHDRLEGQEFCIKHILEDKNAPFKQCSYISTKNGKRCPNAAPKPEKKDGVSFCAEH [P11D] | -0.068 ± 0.12
10 | CAFTHRPCSHLRLEGQEFCIKHILEDKNAPFKQCSYISTKNGKRCPNAAPKPEKKDGVSFCAEH [P11L] | -0.18 ± 0.055
11 | CAFTHRPCSHARLEGQEFCIKHILEDKNAPFKQCSYISTKNGKRCPNAAPKPEKKDGVSFCAEH [P11A] | -0.032 ± 0.066
12 | CAFTHRPCSHKRLEGQEFCIKHILEDKNAPFKQCSYISTKNGKRCPNAAPKPEKKDGVSFCAEH [P11K] | -0.067 ± 0.085
13 | CAFTHRPCSKPRLEGQEFCIKHILEDKNAPFKQCSYISTKNGKRCPNAAPKPEKKDGVSFCAEH [H10K] | -0.113 ± 0.08
14 | CAFTHRPCSCPRLEGQEFCIKHILEDKNAPFKQCSYISTKNGKRCPNAAPKPEKKDGVSFCAEH [H10C] | -0.015 ± 0.097
15 | CAFTHRPCSPPRLEGQEFCIKHILEDKNAPFKQCSYISTKNGKRCPNAAPKPEKKDGVSFCAEH [H10P] | -1.12 ± 0.12
16 | CAFTHRPCSRPRLEGQEFCIKHILEDKNAPFKQCSYISTKNGKRCPNAAPKPEKKDGVSFCAEH [H10R] | -0.064 ± 0.045
17 | CAFTHRPCSVPRLEGQEFCIKHILEDKNAPFKQCSYISTKNGKRCPNAAPKPEKKDGVSFCAEH [H10V] | -0.149 ± 0.06
18 | CAFTHRPCSEPRLEGQEFCIKHILEDKNAPFKQCSYISTKNGKRCPNAAPKPEKKDGVSFCAEH [H10E] | -0.038 ± 0.077
19 | CAFTHRPCSSPRLEGQEFCIKHILEDKNAPFKQCSYISTKNGKRCPNAAPKPEKKDGVSFCAEH [H10S] | -0.042 ± 0.061
20 | CAFTHRPCSWPRLEGQEFCIKHILEDKNAPFKQCSYISTKNGKRCPNAAPKPEKKDGVSFCAEH [H10W] | -0.127 ± 0.068
21 | CAFTHRPCSIPRLEGQEFCIKHILEDKNAPFKQCSYISTKNGKRCPNAAPKPEKKDGVSFCAEH [H10I] | -0.013 ± 0.13

Row | Variant | abundance fitness
22 | CAFTHRPCSMPRLEGQEFCIKHILEDKNAPFKQCSYISTKNGKRCPNAAPKPEKKDGVSFCAEH [H10M] | -0.047 ± 0.061
23 | CAFTHRPCSQPRLEGQEFCIKHILEDKNAPFKQCSYISTKNGKRCPNAAPKPEKKDGVSFCAEH [H10Q] | -0.078 ± 0.086
24 | CAFTHRPCSDPRLEGQEFCIKHILEDKNAPFKQCSYISTKNGKRCPNAAPKPEKKDGVSFCAEH [H10D] | -0.28 ± 0.18
25 | CAFTHRPCSLPRLEGQEFCIKHILEDKNAPFKQCSYISTKNGKRCPNAAPKPEKKDGVSFCAEH [H10L] | -0.103 ± 0.047
26 | CAFTHRPCSGPRLEGQEFCIKHILEDKNAPFKQCSYISTKNGKRCPNAAPKPEKKDGVSFCAEH [H10G] | -0.01 ± 0.066
27 | CAFTHRPCSAPRLEGQEFCIKHILEDKNAPFKQCSYISTKNGKRCPNAAPKPEKKDGVSFCAEH [H10A] | -0.126 ± 0.066
28 | CAFTHRPCSTPRLEGQEFCIKHILEDKNAPFKQCSYISTKNGKRCPNAAPKPEKKDGVSFCAEH [H10T] | -0.11 ± 0.056
29 | CAFTHRPCSFPRLEGQEFCIKHILEDKNAPFKQCSYISTKNGKRCPNAAPKPEKKDGVSFCAEH [H10F] | -0.076 ± 0.1
30 | CAFTHRPCSYPRLEGQEFCIKHILEDKNAPFKQCSYISTKNGKRCPNAAPKPEKKDGVSFCAEH [H10Y] | -0.041 ± 0.079
31 | CAFTHRPCTHPRLEGQEFCIKHILEDKNAPFKQCSYISTKNGKRCPNAAPKPEKKDGVSFCAEH [S9T] | -0.193 ± 0.062
32 | CAFTHRPCNHPRLEGQEFCIKHILEDKNAPFKQCSYISTKNGKRCPNAAPKPEKKDGVSFCAEH [S9N] | -0.313 ± 0.1
33 | CAFTHRPCGHPRLEGQEFCIKHILEDKNAPFKQCSYISTKNGKRCPNAAPKPEKKDGVSFCAEH [S9G] | -0.13 ± 0.051
34 | CAFTHRPCPHPRLEGQEFCIKHILEDKNAPFKQCSYISTKNGKRCPNAAPKPEKKDGVSFCAEH [S9P] | -0.174 ± 0.066
35 | CAFTHRPCQHPRLEGQEFCIKHILEDKNAPFKQCSYISTKNGKRCPNAAPKPEKKDGVSFCAEH [S9Q] | -0.115 ± 0.062
36 | CAFTHRPCKHPRLEGQEFCIKHILEDKNAPFKQCSYISTKNGKRCPNAAPKPEKKDGVSFCAEH [S9K] | -0.343 ± 0.068
37 | CAFTHRPCIHPRLEGQEFCIKHILEDKNAPFKQCSYISTKNGKRCPNAAPKPEKKDGVSFCAEH [S9I] | 0.016 ± 0.12
38 | CAFTHRPCRHPRLEGQEFCIKHILEDKNAPFKQCSYISTKNGKRCPNAAPKPEKKDGVSFCAEH [S9R] | -0.186 ± 0.047
39 | CAFTHRPCVHPRLEGQEFCIKHILEDKNAPFKQCSYISTKNGKRCPNAAPKPEKKDGVSFCAEH [S9V] | -0.065 ± 0.075
40 | CAFTHRPCMHPRLEGQEFCIKHILEDKNAPFKQCSYISTKNGKRCPNAAPKPEKKDGVSFCAEH [S9M] | -0.135 ± 0.06
41 | CAFTHRPCLHPRLEGQEFCIKHILEDKNAPFKQCSYISTKNGKRCPNAAPKPEKKDGVSFCAEH [S9L] | -0.113 ± 0.047
42 | CAFTHRPCHHPRLEGQEFCIKHILEDKNAPFKQCSYISTKNGKRCPNAAPKPEKKDGVSFCAEH [S9H] | -0.119 ± 0.085
